Test results: US20240132578A1

Legend:
Assay in all cases: cell-based or functional assay
[1] = biological target: HIV-1 93IN905 envelope glycoprotein (Env), clade C pseudovirus (HIV-1)
[2] = biological target: HIV-1 92BR020 envelope glycoprotein (Env), clade B pseudovirus (HIV-1)
[3] = biological target: HIV-1 APV6 envelope glycoprotein (Env), clade B pseudovirus (HIV-1)
[4] = biological target: HIV-1 Env of isolate 94UG103 (clade A) (HIV-1)
[5] = biological target: HIV-1 Env of isolate MGRM-A-010 (clade A) (HIV-1)
[6] = biological target: HIV-1 APV13 envelope glycoprotein (Env) (HIV-1)
[7] = biological target: HIV-1 MGRM-AG-005 envelope glycoprotein (Env) (HIV-1)
[8] = biological target: HIV-1 JRCSF envelope glycoprotein (Env) (HIV-1) (UniProt P20871)
[9] = biological target: HIV-1 APV6 envelope glycoprotein (Env) (HIV-1)
[10] = biological target: HIV-1 MGRM-C-028 envelope glycoprotein (Env) (HIV-1)
[11] = biological target: HIV-1 MGRM-A-010 envelope glycoprotein (Env) (HIV-1)
[12] = biological target: HIV-1 JRCSF Env (HIV-1 isolate JRCSF (clade B)) (UniProt P20871)
[13] = biological target: HIV-1 92RW020 Env (HIV-1 isolate 92RW020 (clade A))
[14] = biological target: HIV-1 envelope glycoprotein (Env) of isolate MGRM-D-001 (HIV-1)
[15] = biological target: HIV-1 envelope glycoprotein (Env) of isolate APV6 (HIV-1)
[16] = biological target: HIV-1 envelope glycoprotein (Env) of isolate MGRM-A-010 (HIV-1)
[17] = biological target: HIV-1 envelope glycoprotein (Env) of isolate APV17 (HIV-1)
[18] = biological target: HIV-1 APV6 envelope glycoprotein (Env) on virus (HIV-1, clade B, isolate APV6)
[19] = biological target: HIV-1 APV13 envelope glycoprotein (Env) on virus (HIV-1, clade B, isolate APV13)
[20] = biological target: HIV-1 Env of isolate APV_13 (subtype B), on pseudovirus (HIV-1)
[21] = biological target: HIV-1 Env of isolate JRFL (subtype B), on pseudovirus (HIV-1)
[22] = biological target: HIV-1 Env of isolate 92BR020 (subtype B), on pseudovirus (HIV-1)
[23] = biological target: HIV-1 Env of pseudovirus AC10 (HIV-1)
[24] = biological target: HIV-1 Env of pseudovirus ZM214 (HIV-1)
[25] = biological target: HIV-1 Env of pseudovirus TR0.11 (HIV-1)
[26] = biological target: HIV-1 JR-CSF Env T319A (HIV-1 (isolate JR-CSF, clade B)) (UniProt P20871)
[27] = biological target: HIV-1 92UG024 Env (pseudovirus) (HIV-1)
[28] = biological target: HIV-1 JRCSF Env (pseudovirus) (HIV-1) (UniProt P20871)
[29] = biological target: HIV-1 JRFL Env (pseudovirus) (HIV-1)
[30] = biological target: HIV-1 APV6 Env (pseudovirus) (HIV-1)

1443_C16 (PG16) (TCN-116) (antibody), sequence (VH): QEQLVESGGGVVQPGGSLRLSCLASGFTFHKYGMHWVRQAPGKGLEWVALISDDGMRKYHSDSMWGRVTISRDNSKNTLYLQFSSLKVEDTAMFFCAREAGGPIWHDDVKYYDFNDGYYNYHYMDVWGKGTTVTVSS
1443_C16 (PG16) (TCN-116) (antibody), sequence (VL): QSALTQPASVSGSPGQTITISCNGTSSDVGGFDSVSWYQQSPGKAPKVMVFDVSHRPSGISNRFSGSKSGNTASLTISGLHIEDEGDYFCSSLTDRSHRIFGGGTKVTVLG
5329_C19 (PGT-136) (antibody), sequence (VH): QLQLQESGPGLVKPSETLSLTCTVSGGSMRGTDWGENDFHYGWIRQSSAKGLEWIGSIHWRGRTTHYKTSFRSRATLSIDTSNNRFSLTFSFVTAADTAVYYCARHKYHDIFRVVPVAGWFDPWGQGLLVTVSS
5329_C19 (PGT-136) (antibody), sequence (VL): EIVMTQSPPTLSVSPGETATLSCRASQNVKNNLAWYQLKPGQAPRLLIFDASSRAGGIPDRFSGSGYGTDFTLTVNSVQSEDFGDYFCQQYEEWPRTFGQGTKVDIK

Question: 4858_P08 (PGT-123) (antibody) was tested. Which IC50, pseudovirus neutralization [1] did it give?
Answer: The IC50, pseudovirus neutralization was 0.0071 µg/mL.

Question: And the IC80 (pseudovirus neutralization) [1]?
Answer: Its IC80 (pseudovirus neutralization) is 0.0281 µg/mL.

Question: What about the IC90 (pseudovirus neutralization) [1] of the same substance?
Answer: Its IC90 (pseudovirus neutralization) is 0.0625 µg/mL.

Question: And the IC95 (pseudovirus neutralization) [1]?
Answer: Its IC95 (pseudovirus neutralization) is 0.131 µg/mL.

Question: What about the IC50, pseudovirus neutralization [2] of the same substance?
Answer: The IC50, pseudovirus neutralization was 0.013 µg/mL.

Question: What about the IC80 (pseudovirus neutralization) [2] of the same substance?
Answer: The IC80 (pseudovirus neutralization) was 0.039 µg/mL.

Question: What about the IC90 (pseudovirus neutralization) [2] of the same substance?
Answer: Its IC90 (pseudovirus neutralization) is 0.0741 µg/mL.

Question: And the IC95 (pseudovirus neutralization) [2]?
Answer: Its IC95 (pseudovirus neutralization) is 0.134 µg/mL.

Question: And the IC50, pseudovirus neutralization [3]?
Answer: The IC50, pseudovirus neutralization was 0.0328 µg/mL.

Question: What about the IC80 (pseudovirus neutralization) [3] of the same substance?
Answer: The IC80 (pseudovirus neutralization) was 0.145 µg/mL.

Question: And the IC90 (pseudovirus neutralization) [3]?
Answer: Its IC90 (pseudovirus neutralization) is 0.339 µg/mL.

Question: And the IC95 (pseudovirus neutralization) [3]?
Answer: The IC95 (pseudovirus neutralization) was 0.726 µg/mL.

Question: 1496_C09 (PG9) (TCN-109) (antibody) was tested. Which Neutralization IC80 [4] did it give?
Answer: The Neutralization IC80 was 1.95 µg/mL.

Question: And the Neutralization IC90 [4]?
Answer: The Neutralization IC90 was 5.54 µg/mL.

Question: What about the neutralization IC50 [4] of the same substance?
Answer: Its neutralization IC50 is 0.31 µg/mL.

Question: What about the Neutralization IC80 [5] of the same substance?
Answer: Its Neutralization IC80 is 0.121 µg/mL.

Question: What about the Neutralization IC90 [5] of the same substance?
Answer: Its Neutralization IC90 is 0.242 µg/mL.

Question: And the Neutralization IC95 [5]?
Answer: The Neutralization IC95 was 0.456 µg/mL.

Question: And the neutralization IC50 [5]?
Answer: Its neutralization IC50 is 0.0375 µg/mL.

Question: With 5329_C19 (PGT-136) (antibody) as the substance, how does the Neutralization IC80 [6] read?
Answer: The Neutralization IC80 was > 10 µg/mL.

Question: And the Neutralization IC90 [6]?
Answer: The Neutralization IC90 was > 10 µg/mL.

Question: And the Neutralization IC95 [6]?
Answer: The Neutralization IC95 was > 10 µg/mL.

Question: And the neutralization IC50 [6]?
Answer: The neutralization IC50 was > 10 µg/mL.

Question: And the Neutralization IC80 [7]?
Answer: The Neutralization IC80 was > 10 µg/mL.

Question: And the Neutralization IC90 [7]?
Answer: The Neutralization IC90 was > 10 µg/mL.

Question: And the Neutralization IC95 [7]?
Answer: The Neutralization IC95 was > 10 µg/mL.

Question: What about the neutralization IC50 [7] of the same substance?
Answer: The neutralization IC50 was > 10 µg/mL.

Question: And the Neutralization IC80 [8]?
Answer: The Neutralization IC80 was > 10 µg/mL.

Question: What about the Neutralization IC90 [8] of the same substance?
Answer: Its Neutralization IC90 is > 10 µg/mL.

Question: What about the Neutralization IC95 [8] of the same substance?
Answer: The Neutralization IC95 was > 10 µg/mL.

Question: And the neutralization IC50 [8]?
Answer: The neutralization IC50 was > 10 µg/mL.

Question: What about the Neutralization IC80 [9] of the same substance?
Answer: Its Neutralization IC80 is > 10 µg/mL.

Question: And the Neutralization IC90 [9]?
Answer: The Neutralization IC90 was > 10 µg/mL.

Question: What about the Neutralization IC95 [9] of the same substance?
Answer: The Neutralization IC95 was > 10 µg/mL.

Question: What about the neutralization IC50 [9] of the same substance?
Answer: The neutralization IC50 was > 10 µg/mL.

Question: What about the Neutralization IC80 [10] of the same substance?
Answer: Its Neutralization IC80 is > 10 µg/mL.

Question: And the Neutralization IC90 [10]?
Answer: Its Neutralization IC90 is > 10 µg/mL.

Question: What about the Neutralization IC95 [10] of the same substance?
Answer: Its Neutralization IC95 is > 10 µg/mL.

Question: And the neutralization IC50 [10]?
Answer: The neutralization IC50 was > 10 µg/mL.

Question: And the Neutralization IC80 [11]?
Answer: Its Neutralization IC80 is > 10 µg/mL.

Question: What about the Neutralization IC90 [11] of the same substance?
Answer: The Neutralization IC90 was > 10 µg/mL.

Question: What about the Neutralization IC95 [11] of the same substance?
Answer: The Neutralization IC95 was > 10 µg/mL.

Question: What about the neutralization IC50 [11] of the same substance?
Answer: Its neutralization IC50 is > 10 µg/mL.

Question: 4838_L06 (PGT-121) (antibody) was tested. Which Neutralization IC90 [12] did it give?
Answer: Its Neutralization IC90 is 0.223 µg/mL.

Question: What about the Neutralization IC95 [12] of the same substance?
Answer: Its Neutralization IC95 is 0.417 µg/mL.

Question: And the Neutralization IC80 [13]?
Answer: The Neutralization IC80 was 0.0188 µg/mL.

Question: What about the Neutralization IC90 [13] of the same substance?
Answer: Its Neutralization IC90 is 0.0361 µg/mL.

Question: What about the Neutralization IC95 [13] of the same substance?
Answer: Its Neutralization IC95 is 0.0671 µg/mL.

Question: What does the source list for 5141_B17 (PGT-126) (antibody)?
Answer: Neutralization IC80 [14]: 0.333 µg/mL; Neutralization IC90 [14]: 0.832 µg/mL; Neutralization IC95 [14]: 1.8 µg/mL; neutralization IC50 [14]: 0.0639 µg/mL; Neutralization IC80 [15]: 0.0681 µg/mL; Neutralization IC90 [15]: 0.123 µg/mL; Neutralization IC95 [15]: 0.213 µg/mL; neutralization IC50 [15]: 0.0249 µg/mL; Neutralization IC80 [16]: 0.0137 µg/mL; Neutralization IC90 [16]: 0.0316 µg/mL; Neutralization IC95 [16]: 0.0687 µg/mL; neutralization IC50 [16]: 0.0033 µg/mL; Neutralization IC80 [17]: 4.43 µg/mL; Neutralization IC90 [17]: > 10 µg/mL; Neutralization IC95 [17]: > 10 µg/mL; neutralization IC50 [17]: 0.501 µg/mL

Question: Which results are given for 4877_D15 (PGT-122) (antibody)?
Answer: Neutralization IC80 [18]: 0.351 µg/mL; Neutralization IC90 [18]: 0.779 µg/mL; Neutralization IC95 [18]: 1.55 µg/mL; neutralization IC50 [18]: 0.0851 µg/mL; Neutralization IC80 [19]: 4.14 µg/mL; Neutralization IC90 [19]: 8.6 µg/mL; Neutralization IC95 [19]: > 10 µg/mL; neutralization IC50 [19]: 0.992 µg/mL

Question: For PGV04 (antibody), which IC50, single-round pseudovirus neutralization [20] is on record?
Answer: The IC50, single-round pseudovirus neutralization was 1.23 µg/mL.

Question: What about the IC50, single-round pseudovirus neutralization [21] of the same substance?
Answer: Its IC50, single-round pseudovirus neutralization is 0.032 µg/mL.

Question: And the IC50, single-round pseudovirus neutralization [22]?
Answer: Its IC50, single-round pseudovirus neutralization is 0.25 µg/mL.

Question: What does the source list for 1443_C16 (PG16) (TCN-116) (antibody)?
Answer: IC50, pseudovirus neutralization (TZM-bl assay) [23]: < 0.01 µg/mL; IC50, pseudovirus neutralization (TZM-bl assay) [24]: > 25 µg/mL; IC50, pseudovirus neutralization (TZM-bl assay) [25]: 3.61 µg/mL

Question: Which Fold IC50 increase relative to wild-type [26] does the source give for 5147_N06 (PGT-130) (antibody) here?
Answer: The Fold IC50 increase relative to wild-type was 1.6 fold.

Question: 5123_A06 (PGT-125) (antibody) was tested. Which Neutralization by PGT-125, IC50 [27] did it give?
Answer: The Neutralization by PGT-125, IC50 was > 10 µg/mL.

Question: And the Neutralization by PGT-125, IC80 [27]?
Answer: Its Neutralization by PGT-125, IC80 is > 10 µg/mL.

Question: What about the Neutralization by PGT-125, IC90 [27] of the same substance?
Answer: The Neutralization by PGT-125, IC90 was > 10 µg/mL.

Question: And the Neutralization by PGT-125, IC95 [27]?
Answer: The Neutralization by PGT-125, IC95 was > 10 µg/mL.

Question: And the Neutralization by PGT-125, IC50 [28]?
Answer: Its Neutralization by PGT-125, IC50 is 0.006 µg/mL.

Question: And the Neutralization by PGT-125, IC80 [28]?
Answer: The Neutralization by PGT-125, IC80 was 0.0196 µg/mL.

Question: And the Neutralization by PGT-125, IC90 [28]?
Answer: Its Neutralization by PGT-125, IC90 is 0.0392 µg/mL.

Question: What about the Neutralization by PGT-125, IC95 [28] of the same substance?
Answer: Its Neutralization by PGT-125, IC95 is 0.0741 µg/mL.

Question: And the Neutralization by PGT-125, IC50 [29]?
Answer: The Neutralization by PGT-125, IC50 was 0.0156 µg/mL.

Question: And the Neutralization by PGT-125, IC80 [29]?
Answer: The Neutralization by PGT-125, IC80 was 0.0462 µg/mL.

Question: And the Neutralization by PGT-125, IC90 [29]?
Answer: Its Neutralization by PGT-125, IC90 is 0.0873 µg/mL.

Question: And the Neutralization by PGT-125, IC95 [29]?
Answer: The Neutralization by PGT-125, IC95 was 0.157 µg/mL.

Question: What about the Neutralization by PGT-125, IC50 [30] of the same substance?
Answer: Its Neutralization by PGT-125, IC50 is 0.0359 µg/mL.

Question: What about the Neutralization by PGT-125, IC80 [30] of the same substance?
Answer: The Neutralization by PGT-125, IC80 was 0.133 µg/mL.

Question: And the Neutralization by PGT-125, IC90 [30]?
Answer: Its Neutralization by PGT-125, IC90 is 0.288 µg/mL.

Question: What about the Neutralization by PGT-125, IC95 [30] of the same substance?
Answer: Its Neutralization by PGT-125, IC95 is 0.597 µg/mL.
